Earlier results, collected in PMC3898597.

Columns and labels:
Assay in all cases: SPR
[1] = molecular target: transducin heterotrimer (Gt) (Bos taurus) (UniProt P04695)
Gαt (Bos taurus) = Gαt (Bos taurus) (UniProt P04695)
Gβ1γ1 (Bos taurus) = Gβ1γ1 (Bos taurus) (UniProt P62871)

Chain of rhodopsin (P02699 whole entry): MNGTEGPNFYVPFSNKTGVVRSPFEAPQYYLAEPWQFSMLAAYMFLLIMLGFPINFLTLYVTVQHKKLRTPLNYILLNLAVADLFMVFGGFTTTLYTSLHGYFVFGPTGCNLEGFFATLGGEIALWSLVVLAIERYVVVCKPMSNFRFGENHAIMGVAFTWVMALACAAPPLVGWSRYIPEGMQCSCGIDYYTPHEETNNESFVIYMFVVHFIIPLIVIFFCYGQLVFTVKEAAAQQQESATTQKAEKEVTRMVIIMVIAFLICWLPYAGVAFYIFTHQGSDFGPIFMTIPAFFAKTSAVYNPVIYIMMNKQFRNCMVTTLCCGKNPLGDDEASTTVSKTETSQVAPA
Chain of transducin heterotrimer (Gt) (Bos taurus) (P04695 2-350, chain 1 of 3): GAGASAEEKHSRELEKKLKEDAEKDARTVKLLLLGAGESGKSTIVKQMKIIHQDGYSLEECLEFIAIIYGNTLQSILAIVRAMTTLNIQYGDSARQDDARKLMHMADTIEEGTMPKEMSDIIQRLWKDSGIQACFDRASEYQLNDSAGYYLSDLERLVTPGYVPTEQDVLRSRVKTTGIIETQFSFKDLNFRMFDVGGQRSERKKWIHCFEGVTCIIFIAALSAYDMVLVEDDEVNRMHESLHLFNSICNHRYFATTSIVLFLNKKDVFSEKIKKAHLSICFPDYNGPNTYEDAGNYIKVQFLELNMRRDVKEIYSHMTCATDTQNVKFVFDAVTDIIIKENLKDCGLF
Chain of transducin heterotrimer (Gt) (Bos taurus) (P62873 2-340, chain 2 of 3, further chain): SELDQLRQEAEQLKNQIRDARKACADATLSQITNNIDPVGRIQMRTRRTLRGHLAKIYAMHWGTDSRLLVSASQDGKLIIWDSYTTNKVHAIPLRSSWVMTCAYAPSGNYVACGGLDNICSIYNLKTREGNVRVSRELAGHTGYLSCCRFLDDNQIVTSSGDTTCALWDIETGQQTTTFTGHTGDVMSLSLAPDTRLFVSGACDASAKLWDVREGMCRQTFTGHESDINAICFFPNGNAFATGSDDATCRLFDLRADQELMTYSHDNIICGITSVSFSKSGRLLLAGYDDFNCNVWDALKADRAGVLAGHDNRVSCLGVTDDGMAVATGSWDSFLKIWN
Chain of transducin heterotrimer (Gt) (Bos taurus) (P02698 2-71, chain 3 of 3, further chain): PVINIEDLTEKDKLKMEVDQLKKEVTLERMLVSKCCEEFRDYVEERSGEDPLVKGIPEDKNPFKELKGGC
Chain of Gαt (Bos taurus) (P04695 2-350): as the sequence (P04695 2-350, chain 1 of 3) above
Chain of rhodopsin (recombinant) (P02699 whole entry): as the sequence (P02699 whole entry) above

## rhodopsin (from UniProt P02699)
[1]
  Kd: 13.6 nM
Gαt (Bos taurus)
  Kd: 300 nM
Gβ1γ1 (Bos taurus)
  Kd: 300 nM

## rhodopsin (recombinant) (from UniProt P02699)
[1]
  Kd: 9.1 nM
